Results reported in patent US20030219717A1, “Fluorophore complementation products” (priority 2002, published 2003).
Values belong to the molecule of their own block, whether it stands above or below them.

Tests used:
[1] = biological target: FKBP / FRB (FKBP binding part of FRAP) interaction (Homo sapiens, UniProt P42345+P62942); assay: Rapamycin-induced E[F64L]YFP fragment complementation (EYFP fluorescence) in stably transfected CHO-hIR cells; type: cell-based; settings: CHO-hIR [PS1767+PS1768], 1 μM rapamycin
Experimental: Probes were co-transfected in pairs into CHO-hIR cells (supra), PS1769 with PS1771 and PS1767 with PS1768, using the transfection agent FuGENE™ 6 (Boehringer Mannheim Corp, USA) according to the method recommended by the suppliers. Cells were cultured in growth medium (HAM's F12 nutrient mix with Glutamax-1, 10% foetal bovine serum (FBS), 100 μg penicillin-streptomycin mixture ml^−1 (GibcoBRL, supplied by Life Technologies, Denmark)). Transfected cells were cultured in this medium, with the addition of two selection agents appropriate to the plasmids being used, being 1 mg/ml zeocin plus 0.5 mg/mlG418 sulphate. […]
After 10 to 12 days culture in the continuous presence of the selection agents, the resulting cell lines were judged to be stably transfected. For fluorescence microscopy, aliquots of cells were transferred to Lab-Tek chambered cover glasses (Nalge Nunc International, Naperville USA) and allowed to adhere for at least 24 hours to reach about 80% confluence. Images were routinely collected using a Nikon Diaphot 300 inverted fluorescence microscope (Nikon Corp., Tokyo, Japan) using ×20 (dry) and/or ×40 (oil immersion) objectives and coupled to a Orca ER charged coupled device (CCD) camera (Hammamatsu Photonics K. K., Hammamatsu City, Japan). […]
This is easily accomplished through fluorescence activated cell sorting (FACS) methods. […]

[2] = biological target: FKBP-CtermEYFP173 (human; Aequorea victoria) (UniProt P62942); assay: cell-based or functional assay
[3] = biological target: FRB-CtermEYFP173 (human; Aequorea victoria) (UniProt P42345); assay: cell-based or functional assay

Sequence of FKBP-CtermEYFP173 (human; Aequorea victoria) (P62942 other isoform, or with tags, fused parts or gaps, form in doubt): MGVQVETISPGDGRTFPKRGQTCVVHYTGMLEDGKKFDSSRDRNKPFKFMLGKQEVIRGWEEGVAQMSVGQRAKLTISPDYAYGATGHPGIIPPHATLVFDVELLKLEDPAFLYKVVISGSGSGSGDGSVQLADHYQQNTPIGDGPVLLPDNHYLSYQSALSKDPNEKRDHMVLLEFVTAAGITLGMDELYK

Proportion of cells with significantly greater EYFP fluorescence ([1]; after 4 hours): approximately 40%
Proportion of the cell population encompassed by the EYFP fluorescence response ([1]; after 16 hours): approximately 70%
Molecule: CO[C@H]1C[C@@H]2CC[C@@H](C)[C@@](O)(O2)C(=O)C(=O)N2CCCC[C@H]2C(=O)O[C@H]([C@H](C)C[C@@H]2CC[C@@H](O)[C@H](OC)C2)CC(=O)[C@H](C)/C=C(\C)[C@@H](O)[C@@H](OC)C(=O)[C@H](C)C[C@H](C)/C=C/C=C/C=C/1C [rapamycin]

EC50 of FK506 against 100 nM rapamycin, EYFP fluorescence/cell, 'mid to low-green' FACS group [2]: 1200 nM
EC50 of rapamycin for EYFP fluorescence, 'black' FACS group, 7 and 30 hours [2]: 100 nM
EC50 of rapamycin for EYFP fluorescence, 'medium to low-green' FACS group, 7 and 30 hours [2]: 250 nM
half-time for development of fluorescence after 3 uM rapamycin [2]: 5 h
increase in EYFP fluorescence over the unstimulated value, 'black' FACS group [2]: > 20 fold
increase in EYFP fluorescence over the unstimulated value, 'medium to low-green' FACS group [2]: > 20 fold
proportion of cells with appreciable EYFP fluorescence before rapamycin (t=0) [2]: < 5%
proportion of cells with significantly greater EYFP fluorescence 4 hours after 1 uM rapamycin [2]: 40%
proportion of responding cells 16 hours after 1 uM rapamycin [2]: 70%
Molecule: NtermE[F64L]YFP172-FRB (from UniProt P42345 2025-2114)

EC50 of FK506 against 100 nM rapamycin, EYFP fluorescence/cell, 'black' FACS group [3]: 1200 nM
Molecule: NtermE[F64L]YFP172-FKBP (from UniProt P62942 1-108)
